{
  "source": "paper PMC10371074",
  "about": "“Allosteric control of dynamin-related protein 1-catalyzed mitochondrial fission through a conserved disordered C-terminal Short Linear Motif” (Research Square, 2023)",
  "binders": {"B1": {"name": "human Drp1 (isoform 3) ΔCT6, last six residues (whole CT-SLiM) removed (enzyme, UniProt O00429-4 1-693, looked up)", "chain": "MEALIPVINKLQDVFNTVGADIIQLPQIVVVGTQSSGKSSVLESLVGRDLLPRGTGIVTRRPLILQLVHVSQEDKRKTTGEENGVEAEEWGKFLHTKNKLYTDFDEIRQEIENETERISGNNKGVSPEPIHLKIFSPNVVNLTLVDLPGMTKVPVGDQPKDIELQIRELILRFISNPNSIILAVTAANTDMATSEALKISREVDPDGRRTLAVITKLDLMDAGTDAMDVLMGRVIPVKLGIIGVVNRSQLDINNKKSVTDSIRDEYAFLQKKYPSLANRNGTKYLARTLNRLLMHHIRDCLPELKTRINVLAAQYQSLLNSYGEPVDDKSATLLQLITKFATEYCNTIEGTAKYIETSELCGGARICYIFHETFGRTLESVDPLGGLNTIDILTAIRNATGPRPALFVPEVSFELLVKRQIKRLEEPSLRCVELVHEEMQRIIQHCSNYSTQELLRFPKLHDAIVEVVTCLLRKRLPVTNEMVHNLVAIELAYINTKHPDFADACGLMNNNIEEQRRNRLARELPSAVSRDKVASGGGGVGDGVQEPTTGNWRGMLKTSKAEELLAEEKSKPIPIMPASPQKGHAVNLLDVPVPVARKLSAREQRDCEVIERLIKSYFLIVRKNIQDSVPKAVMHFLVNHVKDTLQSELVGQLYKSSLLDDLLTESEDMAQRRKEAADMLKALQGASQIIAEI", "notes": "Dynamin-related protein 1 (Drp1), human, isoform 3 (699 aa residues), with the last six residues R694-W699 removed; also called ΔCT6 Drp1; DCT6 Drp1"}, "B2": {"name": "human dynamin-related protein 1 (Drp1) isoform 3, wild type, N-terminally His6-tagged (enzyme, UniProt O00429-4 1-699, looked up)", "chain": "MEALIPVINKLQDVFNTVGADIIQLPQIVVVGTQSSGKSSVLESLVGRDLLPRGTGIVTRRPLILQLVHVSQEDKRKTTGEENGVEAEEWGKFLHTKNKLYTDFDEIRQEIENETERISGNNKGVSPEPIHLKIFSPNVVNLTLVDLPGMTKVPVGDQPKDIELQIRELILRFISNPNSIILAVTAANTDMATSEALKISREVDPDGRRTLAVITKLDLMDAGTDAMDVLMGRVIPVKLGIIGVVNRSQLDINNKKSVTDSIRDEYAFLQKKYPSLANRNGTKYLARTLNRLLMHHIRDCLPELKTRINVLAAQYQSLLNSYGEPVDDKSATLLQLITKFATEYCNTIEGTAKYIETSELCGGARICYIFHETFGRTLESVDPLGGLNTIDILTAIRNATGPRPALFVPEVSFELLVKRQIKRLEEPSLRCVELVHEEMQRIIQHCSNYSTQELLRFPKLHDAIVEVVTCLLRKRLPVTNEMVHNLVAIELAYINTKHPDFADACGLMNNNIEEQRRNRLARELPSAVSRDKVASGGGGVGDGVQEPTTGNWRGMLKTSKAEELLAEEKSKPIPIMPASPQKGHAVNLLDVPVPVARKLSAREQRDCEVIERLIKSYFLIVRKNIQDSVPKAVMHFLVNHVKDTLQSELVGQLYKSSLLDDLLTESEDMAQRRKEAADMLKALQGASQIIAEIRETHLW", "notes": "Dynamin-related protein 1 (Drp1), human, isoform 3, 699 aa residues; the last six residues R694-W699 (RETHLW) are the CT-SLiM; also called WT Drp1; WT; not shown: His6 (36 aa-residue N-terminal tag), N-terminal, kept"}, "B3": {"name": "mouse GIPC-1 (GAIP interacting protein, C-terminus 1), full length (natural protein, UniProt Q9Z0G0 1-333, looked up)", "chain": "MPLGLGRRKKAPPLVENEEAEPSRSGLGVGEPGPLGGSAAGESQMGLPPPPAALRPRLVFHTQLAHGSPTGRIEGFTNVKELYGKIAEAFRLPAAEVMFCTLNTHKVDMDKLLGGQIGLEDFIFAHVKGQRKEVEVFKSEEALGLTITDNGAGYAFIKRIKEGSVIDHIQLISVGDMIEAINGQSLLGCRHYEVARLLKELPRGRTFTLKLTEPRKAFDMISQRSAGGHPGSGPQLGTGRGTLRLRSRGPATVEDLPSAFEEKAIEKVDDLLESYMGIRDTELAATMVELGKDKRNPDELAEALDERLGDFAFPDEFVFDVWGAIGDAKVGRY", "notes": "N-terminal IDR, GH1, PDZ and GH2 domains; GST removed after purification by HRV3C proteolysis; also called full-length GIPC-1; source: subcloned in pGEX-6P1, expressed and purified using standard protocols; aggregates removed by centrifugation and/or gel filtration; not shown: GST, N-terminal, cleaved"}, "B4": {"name": "human Drp1 (isoform 3) ΔCT4, last four residues of the CT-SLiM removed (enzyme, UniProt O00429-4 1-695, looked up)", "chain": "MEALIPVINKLQDVFNTVGADIIQLPQIVVVGTQSSGKSSVLESLVGRDLLPRGTGIVTRRPLILQLVHVSQEDKRKTTGEENGVEAEEWGKFLHTKNKLYTDFDEIRQEIENETERISGNNKGVSPEPIHLKIFSPNVVNLTLVDLPGMTKVPVGDQPKDIELQIRELILRFISNPNSIILAVTAANTDMATSEALKISREVDPDGRRTLAVITKLDLMDAGTDAMDVLMGRVIPVKLGIIGVVNRSQLDINNKKSVTDSIRDEYAFLQKKYPSLANRNGTKYLARTLNRLLMHHIRDCLPELKTRINVLAAQYQSLLNSYGEPVDDKSATLLQLITKFATEYCNTIEGTAKYIETSELCGGARICYIFHETFGRTLESVDPLGGLNTIDILTAIRNATGPRPALFVPEVSFELLVKRQIKRLEEPSLRCVELVHEEMQRIIQHCSNYSTQELLRFPKLHDAIVEVVTCLLRKRLPVTNEMVHNLVAIELAYINTKHPDFADACGLMNNNIEEQRRNRLARELPSAVSRDKVASGGGGVGDGVQEPTTGNWRGMLKTSKAEELLAEEKSKPIPIMPASPQKGHAVNLLDVPVPVARKLSAREQRDCEVIERLIKSYFLIVRKNIQDSVPKAVMHFLVNHVKDTLQSELVGQLYKSSLLDDLLTESEDMAQRRKEAADMLKALQGASQIIAEIRE", "notes": "Dynamin-related protein 1 (Drp1), human, isoform 3 (699 aa residues), with the last four residues removed; also called ΔCT4 Drp1; ΔCT4/6"}},
  "key": {"[1]": {"molecular_target": "the molecule itself", "experiment": "SEC-MALS; nucleotide-free apo state in solution; Superose 6 10/300 GL column; 5 uM protein at injection (Fig. 1E), other injection concentrations in Fig. S2C"}, "[2]": {"molecular_target": "the molecule itself", "experiment": "negative-stain EM; 2-D class averages of single particles; Drp1 at 2 uM, apo state and with 1 mM GTP"}, "[3]": {"molecular_target": "B1", "experiment": "negative-stain EM; 2-D class averages; apo Drp1 (2 uM) with GIPC-1 (8 uM), 1:4 molar ratio", "conditions": "both partners purified"}, "[4]": {"molecular_target": "the molecule itself", "experiment": "SEC-MALS; full-length GIPC-1, unliganded, 10 uM at injection; Superdex 200 10/300 GL column; dimer to monomers"}, "[5]": {"molecular_target": "B2", "experiment": "negative-stain EM; Drp1 (1.5 uM) pre-incubated with GIPC-1 (6 uM) for 15 min at room temperature, then CL-containing liposomes (50 uM total lipid) for 15 min; equimolar and 1:4 ratios", "conditions": "both partners purified"}},
  "note": "Values joined by “and” are separate entries in the source; they are usually repeats but may differ in a detail not shown here. Equal values may be shown once.",
  "data": [
    {"binder": "B1", "values": [
      {"measurement": "stoichiometry N", "setting": "[1]", "value": "2 and 4"}
    ]},
    {"binder": "B2", "values": [
      {"measurement": "stoichiometry N", "setting": "[2]", "value": 2},
      {"measurement": "stoichiometry N", "setting": "[1]", "value": 4}
    ]},
    {"binder": "B3", "values": [
      {"measurement": "binding result", "setting": "[3]", "value": "binds"},
      {"measurement": "stoichiometry N", "setting": "[4]", "value": 2},
      {"measurement": "binding result", "setting": "[5]", "value": "binds"}
    ]},
    {"binder": "B4", "values": [
      {"measurement": "stoichiometry N", "setting": "[1]", "value": "2 and 4"}
    ]}
  ]
}
